Measured values: article PMC9328677

B1: truncated APLF^AD construct corresponding to residues 449 to 490 (APLF^AD-Δ) [Homo sapiens] / stoichiometric mixture of full-length Drosophila melanogaster -H2B and H3-H4 (octamer-mix) [Drosophila … (parent)
chain 1: GLDEDNDNVGQPNEYDLNDSFLDDEEEDYEPTDEDSDWEPGKE
chain 2: not shown
chain 3: not shown
chain 4: not shown
chain 5: not shown

Variants of: B1
Assay: ITC
Settings: with stoichiometric mixture of full-length Drosophila melanogaster H2A-H2B and H3-H4 (octamer-mix) [Drosophila melanogaster]

Row | Kd [nM] | Variant
1 | 1220 | chain 1 Y15A F21A Y29A W38A
